Laboratory results: patent US20160376353A1 (DECIMMUNE THERAPEUTICS, published 2016)
Ends that are not written are not given here.

T1: N2 peptide (non-muscle myosin neo-epitope N2 12mer sequence)
T1 construct: also called N2 12-mer peptide
T1 peptide: LMKNMDPLNDNV

T2: Biotin-labeled N2 peptide (also: biotin label, position not given here)
T2 construct: also called immobilized N2
T2 peptide: LMKNMDPLNDNV


How the values were obtained:
[1] = biological target: T1, N2 peptide (non-muscle myosin …); test: SPR (BIACORE X100), antibody captured by anti-human Fc, N2 peptide in solution
From the text: (§1) The remaining sequences represent the germline sequences with the highest homology that encode productive antibody. All of the humanized sequences maintain the murine 21G6 CDR regions which are shown inside the boxes in FIG. 1. The humanized variable regions were cloned into a vector containing wild type human IgG1, human IgG1 containing a mutation at amino acid 297 (Asn 297 to Q297), human IgG4 containing a mutation at amino acid 228 (serine to proline) and human kappa light chain. Each antibody (heavy and light) combination was expressed by transient co-transfection in 293A cells (in the presence of low Ig serum). The antibody containing supernatants were collected and analyzed for binding to the N2 peptide by ELISA and BIACORE™ X100 system. All experiments were performed using a BIACORE™ X100 system. For antibody capture experiments, a CM5 chip was prepared by 10 ul/minute injection of EDC/NHS (N-ethyl-N′-(3-dimethylaminopropyl) carbodiimide (EDC), N-hydroxysuccinimide (NHS) for 7 minutes, followed by a 10 ul/minute injection of anti-human Fc (GE Lifesciences) at a concentration of 25 ug/ml in sodium acetate at pH 5 for 3 minutes. Ethanolamine-HCl was injected for 7 minutes at 10 ul/minute. The chimeric or humanized antibodies were captured onto flow cell 2 and N2 peptide at varying concentrations was flowed over flow cells 1 and 2 at a rate of 30 ul/minute with a contact time of 120 seconds and a dissociation period of 120 seconds. Complete removal of captured antibody was accomplished by regeneration with 3M MgCl2 for 30 seconds at a flow rate of 10 ul/minute. For peptide immobilized experiments, a CM5 chip was prepared by 10 ul/minute injection of EDC/NHS (N-ethyl-N′-(3-dimethylaminopropyl) carbodiimide (EDC), N-hydroxysuccinimide (NHS) for 7 minutes, followed by a 10 ul/minute injection of NEUTRAVIDIN® protein (ThermoFisher Pierce) at a concentration of 5 ug/ml in sodium acetate, pH 5 to an immobilization response of 100-200RU. Ethanolamine-HCl was injected for 7 minutes at 10 ul/minute. Biotin-labeled N2 peptide was captured on flow channel 2 with the goal of an experimental Rmax of about 50-100RU. Purified chimeric or humanized antibodies were flowed over both flow channels at a rate of 30 ul/min for a contact time of 120 seconds and allowed to dissociate for 600 seconds.

[2] = biological target: T2, Biotin-labeled N2 peptide; test: SPR (BIACORE X100), biotin-N2 peptide on NeutrAvidin chip, antibody in solution; kd/ka (monovalent)
From the text: as §1

| Kd [1] | Kd [2] | Binder |
| --- | --- | --- |
| 6 to 7 µM | – | Chimeric 21G6, human heavy chain constant region IgG1 (wild type) (antibody, V domains shown, also called CHIgG1 / Ch; ch21G6 IgG1) VH: QVQLQQPGAELVKPGASVKLSCKASGYTFTSYYMYWVKQRPGQGLEWIGGINPSNGGTNFNEKFKSKATLTVDKSSSTAYMQLSSLTSEDSAVYYCTRWGYDREWFAYWGQGTLVTVSA VL: DIVMTQAAPSVPVTPGESVSISCRSSKSLLHSNGNTYLYWFLQRPGQSPQVLIYRMSNLASGVPDRFSGSGSGTAFTLRISRVEAEDVGVYYCMQHLEYPFTFGSGTKLEIKR |
| 6.4 to 8.4 µM | – | H2-21G6 / L2-21G6, wild type human IgG1 (antibody, V domains shown, also called H2/L2) VH: QVQLVQSGAEVKKPGASVKVSCKASGYTFTSYYMYWVRQAPGQGLEWIGGINPSNGGTNFNEKFKSKATMTVDKSTSTAYMELRSLRSDDSAVYYCTRWGYDREWFAYWGQGTLVTVSS VL: DIVMTQSPLSLPVTPGEPASISCRSSKSLLHSNGNTYLYWFLQKPGQSPQLLIYRMSNLASGVPDRFSGSGSGTDFTLKISRVEAEDVGVYYCMQHLEYPFTFGQGTKLEIKR |
| 20 µM | – | H3-21G6 / L1-21G6, human IgG1 N297Q (antibody, V domains shown, also called H3/L1 N297Q) VH: QVQLVQSGAEVKKPGSSVKVSCKASGYTFTSYYMYWVRQAPGQGLEWIGGINPSNGGTNFNEKFKSKATITVDKSTSTAYMELSSLRSEDTAVYYCTRWGYDREWFAYWGQGTLVTVSS VL: DIVMTQSPATLSVSPGERATISCRSSKSLLHSNGNTYLYWFQQKPGQPPKVLIYRMSNLASGVPARFSGSGSGTDFTLTISSVEPEDFATYYCMQHLEYPFTFGGGTKLEIKR |
| 3.1 to 3.7 µM | – | H2-21G6 / L2-21G6, human IgG1 N297Q (antibody, V domains shown, also called H2/L2 N297Q) VH: QVQLVQSGAEVKKPGASVKVSCKASGYTFTSYYMYWVRQAPGQGLEWIGGINPSNGGTNFNEKFKSKATMTVDKSTSTAYMELRSLRSDDSAVYYCTRWGYDREWFAYWGQGTLVTVSS VL: DIVMTQSPLSLPVTPGEPASISCRSSKSLLHSNGNTYLYWFLQKPGQSPQLLIYRMSNLASGVPDRFSGSGSGTDFTLKISRVEAEDVGVYYCMQHLEYPFTFGQGTKLEIKR |
| 7.9 µM | – | H3-21G6 / L1-21G6, wild type human IgG1 (antibody, V domains shown, also called H3/L1) VH: QVQLVQSGAEVKKPGSSVKVSCKASGYTFTSYYMYWVRQAPGQGLEWIGGINPSNGGTNFNEKFKSKATITVDKSTSTAYMELSSLRSEDTAVYYCTRWGYDREWFAYWGQGTLVTVSS VL: DIVMTQSPATLSVSPGERATISCRSSKSLLHSNGNTYLYWFQQKPGQPPKVLIYRMSNLASGVPARFSGSGSGTDFTLTISSVEPEDFATYYCMQHLEYPFTFGGGTKLEIKR |
| 9.56 µM | – | H2-21G6 / L3-21G6, wild type human IgG1 (antibody, V domains shown, also called H2/L3) VH: QVQLVQSGAEVKKPGASVKVSCKASGYTFTSYYMYWVRQAPGQGLEWIGGINPSNGGTNFNEKFKSKATMTVDKSTSTAYMELRSLRSDDSAVYYCTRWGYDREWFAYWGQGTLVTVSS VL: DIVMTQTPLSLSYTPGQPASISCRSSKSLLHSNGNTYLYWFLQKPGQSPQLLIYRMSNLASGVPDRFSGSGSGTDFTLKISRVEAEDVGVYYCMQHLEYPFTFGQGTKLEIKR |
| – | 0.64 µM | H3-21G6 / L2-21G6 (Table 2, constant region not stated) (antibody, V domains shown, human kappa light chain; also called H3/L2) VH: QVQLVQSGAEVKKPGSSVKVSCKASGYTFTSYYMYWVRQAPGQGLEWIGGINPSNGGTNFNEKFKSKATITVDKSTSTAYMELSSLRSEDTAVYYCTRWGYDREWFAYWGQGTLVTVSS VL: DIVMTQSPLSLPVTPGEPASISCRSSKSLLHSNGNTYLYWFLQKPGQSPQLLIYRMSNLASGVPDRFSGSGSGTDFTLKISRVEAEDVGVYYCMQHLEYPFTFGQGTKLEIKR |
| 20.9 µM | – | H1-21G6 / L3-21G6, wild type human IgG1 (antibody, V domains shown, also called H1/L3) VH: QVQLVQSGAEVVKPGASVKLSCKASGYTFTSYYMYWVKQAPGQGLEWIGGINPSNGGTNFNEKFKSKATLTVDKSASTAYMELSSLRSEDTAVYYCTRWGYDREWFAYWGQGTLVTVSS VL: DIVMTQTPLSLSYTPGQPASISCRSSKSLLHSNGNTYLYWFLQKPGQSPQLLIYRMSNLASGVPDRFSGSGSGTDFTLKISRVEAEDVGVYYCMQHLEYPFTFGQGTKLEIKR |
| – | 0.66 µM | H2-21G6 / L1-21G6 (Table 2, constant region not stated) (antibody, V domains shown, human kappa light chain; also called H2/L1) VH: QVQLVQSGAEVKKPGASVKVSCKASGYTFTSYYMYWVRQAPGQGLEWIGGINPSNGGTNFNEKFKSKATMTVDKSTSTAYMELRSLRSDDSAVYYCTRWGYDREWFAYWGQGTLVTVSS VL: DIVMTQSPATLSVSPGERATISCRSSKSLLHSNGNTYLYWFQQKPGQPPKVLIYRMSNLASGVPARFSGSGSGTDFTLTISSVEPEDFATYYCMQHLEYPFTFGGGTKLEIKR |
| – | 0.9 µM | H3-21G6 / L3-21G6 (Table 2, constant region not stated) (antibody, V domains shown, human kappa light chain; also called H3/L3) VH: QVQLVQSGAEVKKPGSSVKVSCKASGYTFTSYYMYWVRQAPGQGLEWIGGINPSNGGTNFNEKFKSKATITVDKSTSTAYMELSSLRSEDTAVYYCTRWGYDREWFAYWGQGTLVTVSS VL: DIVMTQTPLSLSYTPGQPASISCRSSKSLLHSNGNTYLYWFLQKPGQSPQLLIYRMSNLASGVPDRFSGSGSGTDFTLKISRVEAEDVGVYYCMQHLEYPFTFGQGTKLEIKR |
| 9.38 µM | – | H3-21G6 / L3-21G6, wild type human IgG1 (antibody, V domains shown, also called H3/L3) VH: QVQLVQSGAEVKKPGSSVKVSCKASGYTFTSYYMYWVRQAPGQGLEWIGGINPSNGGTNFNEKFKSKATITVDKSTSTAYMELSSLRSEDTAVYYCTRWGYDREWFAYWGQGTLVTVSS VL: DIVMTQTPLSLSYTPGQPASISCRSSKSLLHSNGNTYLYWFLQKPGQSPQLLIYRMSNLASGVPDRFSGSGSGTDFTLKISRVEAEDVGVYYCMQHLEYPFTFGQGTKLEIKR |
| 8.8 µM | – | H2-21G6 / L3-21G6, human IgG1 N297Q (antibody, V domains shown, also called H2/L3 N297Q) VH: QVQLVQSGAEVKKPGASVKVSCKASGYTFTSYYMYWVRQAPGQGLEWIGGINPSNGGTNFNEKFKSKATMTVDKSTSTAYMELRSLRSDDSAVYYCTRWGYDREWFAYWGQGTLVTVSS VL: DIVMTQTPLSLSYTPGQPASISCRSSKSLLHSNGNTYLYWFLQKPGQSPQLLIYRMSNLASGVPDRFSGSGSGTDFTLKISRVEAEDVGVYYCMQHLEYPFTFGQGTKLEIKR |
| 6.6 to 7.7 µM | – | H1-21G6 / L1-21G6, wild type human IgG1 (antibody, V domains shown, also called H1/L1) VH: QVQLVQSGAEVVKPGASVKLSCKASGYTFTSYYMYWVKQAPGQGLEWIGGINPSNGGTNFNEKFKSKATLTVDKSASTAYMELSSLRSEDTAVYYCTRWGYDREWFAYWGQGTLVTVSS VL: DIVMTQSPATLSVSPGERATISCRSSKSLLHSNGNTYLYWFQQKPGQPPKVLIYRMSNLASGVPARFSGSGSGTDFTLTISSVEPEDFATYYCMQHLEYPFTFGGGTKLEIKR |
| 9.8 to 11 µM | – | H2-21G6 / L1-21G6, wild type human IgG1 (antibody, V domains shown, also called H2/L1) VH: QVQLVQSGAEVKKPGASVKVSCKASGYTFTSYYMYWVRQAPGQGLEWIGGINPSNGGTNFNEKFKSKATMTVDKSTSTAYMELRSLRSDDSAVYYCTRWGYDREWFAYWGQGTLVTVSS VL: DIVMTQSPATLSVSPGERATISCRSSKSLLHSNGNTYLYWFQQKPGQPPKVLIYRMSNLASGVPARFSGSGSGTDFTLTISSVEPEDFATYYCMQHLEYPFTFGGGTKLEIKR |
| 11.5 µM | – | H3-21G6 / L2-21G6, wild type human IgG1 (antibody, V domains shown, also called H3/L2) VH: QVQLVQSGAEVKKPGSSVKVSCKASGYTFTSYYMYWVRQAPGQGLEWIGGINPSNGGTNFNEKFKSKATITVDKSTSTAYMELSSLRSEDTAVYYCTRWGYDREWFAYWGQGTLVTVSS VL: DIVMTQSPLSLPVTPGEPASISCRSSKSLLHSNGNTYLYWFLQKPGQSPQLLIYRMSNLASGVPDRFSGSGSGTDFTLKISRVEAEDVGVYYCMQHLEYPFTFGQGTKLEIKR |
| – | 0.1 µM | H4-21G6 / L2-21G6 (Table 3B, constant region not stated) (antibody, V domains shown, human kappa light chain; also called H4/L2) VH: QVQLVQSGAEVKKPGASVKVSCKASGYTFTSYYMYWVRQAPGQGLEWMGGINPSNGGTNFNEKFKSRVTMTTDTSTSTAYMELRSLRSDDTAVYYCTRWGYDREWFAYWGQGTLVTVSS VL: DIVMTQSPLSLPVTPGEPASISCRSSKSLLHSNGNTYLYWFLQKPGQSPQLLIYRMSNLASGVPDRFSGSGSGTDFTLKISRVEAEDVGVYYCMQHLEYPFTFGQGTKLEIKR |
| 17 µM | – | H1-21G6 / L2-21G6, wild type human IgG1 (antibody, V domains shown, also called H1/L2) VH: QVQLVQSGAEVVKPGASVKLSCKASGYTFTSYYMYWVKQAPGQGLEWIGGINPSNGGTNFNEKFKSKATLTVDKSASTAYMELSSLRSEDTAVYYCTRWGYDREWFAYWGQGTLVTVSS VL: DIVMTQSPLSLPVTPGEPASISCRSSKSLLHSNGNTYLYWFLQKPGQSPQLLIYRMSNLASGVPDRFSGSGSGTDFTLKISRVEAEDVGVYYCMQHLEYPFTFGQGTKLEIKR |
| 9 µM | – | H1-21G6 / L1-21G6, human IgG1 N297Q (antibody, V domains shown, also called H1/L1 N297Q) VH: QVQLVQSGAEVVKPGASVKLSCKASGYTFTSYYMYWVKQAPGQGLEWIGGINPSNGGTNFNEKFKSKATLTVDKSASTAYMELSSLRSEDTAVYYCTRWGYDREWFAYWGQGTLVTVSS VL: DIVMTQSPATLSVSPGERATISCRSSKSLLHSNGNTYLYWFQQKPGQPPKVLIYRMSNLASGVPARFSGSGSGTDFTLTISSVEPEDFATYYCMQHLEYPFTFGGGTKLEIKR |
